Measurements published in PMC9860392, “The N-terminal domain of human mitochondrial helicase Twinkle has DNA-binding activity crucial for supporting processive DNA synthesis by polymerase γ” (The Journal of Biological Chemistry, 2022).

Columns and labels:
[1] = target: T1, FL Twinkle (mitochondrial helicase) (Homo sapiens, UniProt Q96RR1 43-684); experiment: fluorescence anisotropy; no NaCl added; 50 mM Tris acetate pH 7.5, 10% glycerol, 0.05% Tween-20, 0.5 mM DTT, 0 or 50 mM NaCl; 2.5 nM DNA; no Mg2+ or nucleotide listed; temperature not stated; details: protein: recombinant; tags: SUMO tag removed (ULP1); chain copies: 6; label: 3' fluorescein-T; single strand
T1 sequence: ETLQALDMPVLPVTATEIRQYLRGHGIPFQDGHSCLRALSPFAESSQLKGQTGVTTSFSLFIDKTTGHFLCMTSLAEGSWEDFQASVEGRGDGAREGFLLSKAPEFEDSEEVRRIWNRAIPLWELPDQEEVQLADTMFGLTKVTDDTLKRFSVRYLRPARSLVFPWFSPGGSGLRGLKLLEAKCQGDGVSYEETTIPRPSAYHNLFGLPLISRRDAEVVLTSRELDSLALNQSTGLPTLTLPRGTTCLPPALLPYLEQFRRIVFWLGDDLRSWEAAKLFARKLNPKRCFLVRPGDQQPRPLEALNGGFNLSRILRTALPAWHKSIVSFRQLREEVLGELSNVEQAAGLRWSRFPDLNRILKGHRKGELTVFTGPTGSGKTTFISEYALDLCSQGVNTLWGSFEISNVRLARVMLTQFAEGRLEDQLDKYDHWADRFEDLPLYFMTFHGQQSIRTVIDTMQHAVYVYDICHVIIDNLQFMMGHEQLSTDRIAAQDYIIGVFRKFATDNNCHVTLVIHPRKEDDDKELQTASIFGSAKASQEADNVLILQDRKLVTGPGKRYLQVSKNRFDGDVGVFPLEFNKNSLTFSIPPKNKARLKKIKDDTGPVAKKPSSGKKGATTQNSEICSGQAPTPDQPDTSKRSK

[2] = target: T2, Twinkle CTD (C-terminal domain plus linker) (Homo sapiens, UniProt Q96RR1 360-684); experiment: as above; details: protein: recombinant; tags: SUMO tag removed (ULP1); chain copies: 6; label: 3' fluorescein-T; single strand
T2 sequence: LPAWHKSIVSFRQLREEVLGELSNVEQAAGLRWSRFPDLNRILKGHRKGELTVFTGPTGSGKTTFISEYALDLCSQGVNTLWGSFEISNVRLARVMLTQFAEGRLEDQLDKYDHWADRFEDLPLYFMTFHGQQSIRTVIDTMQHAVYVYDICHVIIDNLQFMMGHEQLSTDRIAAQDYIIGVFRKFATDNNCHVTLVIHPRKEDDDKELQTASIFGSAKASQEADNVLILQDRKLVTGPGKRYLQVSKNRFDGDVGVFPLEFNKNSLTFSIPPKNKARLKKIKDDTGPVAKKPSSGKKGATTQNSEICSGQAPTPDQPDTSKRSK

Twinkle NTD [3] = target: T3, Twinkle NTD (Homo sapiens, UniProt Q96RR1 43-372); experiment: fluorescence anisotropy; no NaCl added; negligible binding; 50 mM Tris acetate pH 7.5, 10% glycerol, 0.05% Tween-20, 0.5 mM DTT, 0 or 50 mM NaCl; 2.5 nM DNA; no Mg2+ or nucleotide listed; temperature not stated; details: protein: recombinant; tags: SUMO tag removed (ULP1); label: 3' fluorescein-T; single strand
T3 sequence: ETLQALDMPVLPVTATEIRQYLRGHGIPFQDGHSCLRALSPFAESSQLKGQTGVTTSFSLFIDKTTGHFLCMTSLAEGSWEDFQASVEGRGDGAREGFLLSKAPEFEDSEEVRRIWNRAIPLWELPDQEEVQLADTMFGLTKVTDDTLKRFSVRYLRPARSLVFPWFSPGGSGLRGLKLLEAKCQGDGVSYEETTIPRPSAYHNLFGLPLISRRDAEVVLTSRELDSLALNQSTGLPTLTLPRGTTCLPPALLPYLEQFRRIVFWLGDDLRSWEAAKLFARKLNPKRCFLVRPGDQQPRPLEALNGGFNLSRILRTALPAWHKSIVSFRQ

[4] = target: T1, FL Twinkle (mitochondrial helicase); experiment: fluorescence anisotropy; 50 mM NaCl (error exceeds value); 50 mM Tris acetate pH 7.5, 10% glycerol, 0.05% Tween-20, 0.5 mM DTT, 0 or 50 mM NaCl; 2.5 nM DNA; no Mg2+ or nucleotide listed; temperature not stated; details: protein: recombinant; tags: SUMO tag removed (ULP1); chain copies: 6; label: 3' fluorescein-T; single strand
[5] = target: T1, FL Twinkle (mitochondrial helicase); experiment: fluorescence anisotropy; 50 mM NaCl; 50 mM Tris acetate pH 7.5, 10% glycerol, 0.05% Tween-20, 0.5 mM DTT, 0 or 50 mM NaCl; 2.5 nM DNA; no Mg2+ or nucleotide listed; temperature not stated; details: protein: recombinant; tags: SUMO tag removed (ULP1); chain copies: 6; label: 3' fluorescein-T; single strand
[6] = target: T2, Twinkle CTD (C-terminal domain plus …); experiment: as above; details: protein: recombinant; tags: SUMO tag removed (ULP1); chain copies: 6; label: 3' fluorescein-T; single strand
Twinkle NTD [7] = target: T3, Twinkle NTD; experiment: fluorescence anisotropy; no NaCl added; weak phase of two-site fit; 50 mM Tris acetate pH 7.5, 10% glycerol, 0.05% Tween-20, 0.5 mM DTT, 0 or 50 mM NaCl; 2.5 nM DNA; no Mg2+ or nucleotide listed; temperature not stated; details: protein: recombinant; tags: SUMO tag removed (ULP1); label: 3' fluorescein-T; single strand
Twinkle NTD [8] = target: T3, Twinkle NTD; experiment: fluorescence anisotropy; no NaCl added; tight phase of two-site fit; 50 mM Tris acetate pH 7.5, 10% glycerol, 0.05% Tween-20, 0.5 mM DTT, 0 or 50 mM NaCl; 2.5 nM DNA; no Mg2+ or nucleotide listed; temperature not stated; details: protein: recombinant; tags: SUMO tag removed (ULP1); label: 3' fluorescein-T; single strand
[9] = target: the molecule itself; experiment: SEC; Superdex 200 Increase 10/300 GL, 4 °C, 0.3 ml/min; 15 μl of 38.5 μM (monomer) FL Twinkle in 50 mM Tris-Cl pH 7.1, 5% glycerol, 300 mM NaCl, 1 mM TCEP; size from a calibration curve of protein standards
Twinkle NTD [10] = target: T3, Twinkle NTD; experiment: fluorescence anisotropy; no NaCl added; 50 mM Tris acetate pH 7.5, 10% glycerol, 0.05% Tween-20, 0.5 mM DTT, 0 or 50 mM NaCl; 2.5 nM DNA; no Mg2+ or nucleotide listed; temperature not stated; details: protein: recombinant; tags: SUMO tag removed (ULP1); label: 3' fluorescein-T; single strand
[11] = target: the molecule itself; experiment: SEC; Superdex 200 Increase 10/300 GL, 4 °C, 0.3 ml/min; 50 μl of 10 μM (monomer) CTD in 50 mM Tris-Cl pH 7.1, 5% glycerol, 600 mM NaCl; size from a calibration curve of protein standards

With TGAACACT (ssDNA) [8 nt ssDNA] the Kd [1] was 9 ± 4.9 nM, the Kd [2] was 116 ± 41 nM and the binding result (Twinkle NTD [3]) was “no binding”. It also gave a Kd [4] of 10 ± 12 nM.

For TGTGTTAGTTGGGGGGTGACTGTTAAAAGT (ssDNA) [30 nt ssDNA], the Kd [5] was 2.6 ± 0.5 nM, the Kd [6] was 4.5 ± 0.9 nM and the Kd [1] was 1.6 ± 0.3 nM. For the same binder, the Kd [2] was 1.7 ± 0.5 nM, the Kd (Twinkle NTD [7]) was 730 ± 450 nM and the Kd (Twinkle NTD [8]) was 17.5 ± 4 nM.

B1: full-length (FL) human Twinkle (amino acids 43-684) (enzyme, UniProt Q96RR1 43-684, looked up)
chain: T1 sequence
notes: human mitochondrial helicase Twinkle, amino acids 43-684; SUMO fusion cut with ULP1 SUMO-protease; the fusion was purified on Ni resin, so it probably carried a His tag that left with SUMO; also called FL Twinkle; TWNK; source: E. coli Rosetta 2 DE3 pLacI, purified (PEI, ammonium sulfate, Ni sepharose, Q sepharose, heparin)
B1 was tested, and the “stoichiometry N” value [9] was ~7 subunits.

Binder CTCTTGAACACT (ssDNA) [12 nt ssDNA] has a Kd [5] of 53 ± 17 nM, a Kd (Twinkle NTD [10]) of 141 ± 25 nM and a Kd [1] of 5.2 ± 1 nM. The Kd [2] was 21.7 ± 3 nM.

AACTCTTGAACACT (ssDNA) [14 nt ssDNA] was tested, and the Kd [5] was 39 ± 16 nM, the Kd (Twinkle NTD [10]) was 121 ± 26 nM and the Kd [1] was 3.3 ± 0.7 nM. The Kd [2] was 8.8 ± 1.5 nM.

B2: Twinkle C-terminal domain plus linker (amino acids 360-684) (domain or fragment, human, UniProt Q96RR1 360-684, looked up)
chain: T2 sequence
notes: human mitochondrial helicase Twinkle, amino acids 360-684 (linker region and C-terminal domain; 36,650 Da); Cloned in the pET28 SUMO expression vector; SUMO cut with ULP1 SUMO-protease; the fusion was purified on Ni resin, so it probably carried a His tag that left with SUMO; also called CTD; Twinkle CTD; source: E. coli Rosetta 2 DE3 pLacI, purified (PEI, ammonium sulfate, Ni-NTA, heparin)
In the case of B2, the “stoichiometry N” value [11] is reported as ~12 subunit.

TGCTATAACTCTTGAACACT (ssDNA) [20 nt ssDNA] was tested, and the Kd [5] was 8.8 ± 1.3 nM, the Kd [6] was 50 ± 11 nM and the Kd [1] was 1.9 ± 0.5 nM. For the same binder, the Kd [2] was 2.2 ± 0.7 nM, the Kd (Twinkle NTD [7]) was 1200 ± 640 nM and the Kd (Twinkle NTD [8]) was 18 ± 7 nM.

With ATAACTCTTGAACACT (ssDNA) [16 nt ssDNA] the Kd [5] was 22.6 ± 5.1 nM, the Kd (Twinkle NTD [10]) was 105 ± 24 nM and the Kd [1] was 2.8 ± 0.7 nM. It also gave a Kd [2] of 5.2 ± 1.4 nM.
